Like-named read-outs stand apart in the source and are kept apart here. One block for each substance: values may come before it.
What was measured:
[1] = target: IgG4 heavy chain CH3 (Homo sapiens) [IgG part: P01861]; settings: cited from earlier work
[2] = target: hinge-deleted human IgG4 anti-epidermal growth factor receptor (EGFR) antibody (IgG4Δhinge), L368A variant (human); assay: native MS; variable-temperature ESI native MS (vT-ESI-MS); 2.5 uM antibody in 150 mM ammonium acetate pH 7.5; continuous ramp from 30 to 100 °C at 2 °C/min; full noncovalent antibody to two half antibodies
[3] = target: hinge-deleted human IgG4 anti-epidermal growth factor receptor (EGFR) antibody (IgG4Δhinge), L368A variant (human); assay: as above; remark: listed apart in the source
[4] = target: hinge-deleted human IgG4 anti-epidermal growth factor receptor (EGFR) antibody (IgG4Δhinge), R409K variant (human); assay: as above

Sequence of IgG4 heavy chain CH3 (P01861 218-328): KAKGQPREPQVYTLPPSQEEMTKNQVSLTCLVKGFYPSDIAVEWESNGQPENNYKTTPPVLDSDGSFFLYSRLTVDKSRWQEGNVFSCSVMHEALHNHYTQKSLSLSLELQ

Substance: IgG4 heavy chain CH3 (from UniProt P01861)
Kd [1]: 49.7 nM

T1/2 (dissociation temperature of the full antibody into half antibodies) [2]: 53 °C
T1/2 (dissociation temperature of the full antibody into half antibodies) [3]: 52 °C
Substance: hinge-deleted human IgG4 anti-epidermal growth factor receptor (EGFR) antibody (IgG4Δhinge), L368A variant

T1/2 (dissociation temperature of the full antibody into half antibodies) [4]: 77 °C
Substance: hinge-deleted human IgG4 anti-epidermal growth factor receptor (EGFR) antibody (IgG4Δhinge), R409K variant
